We go through 125 sequences from the supplement of paper PMC9112550, “Optimization of the antimicrobial peptide Bac7 by deep mutational scanning” (BMC Biology, 2022).

This series deals with Escherichia coli TOP10. Nature of the series: shrunken log2 fold change of peptide-encoding DNA abundance (4.5 h post-induction vs induction); higher = less antimicrobial activity (less host growth inhibition). Conditions: time post-induction: 4.5 h; library: site-saturation at positions 5, 18, 19, 20.
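Further: peptides expressed intracellularly from a pBAD plasmid library in pooled LB shake-flask culture, induced with 0.3% L-arabinose, DNA abundance read by NGS, three biological replicates, DESeq2 with apeglm shrinkage.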

Take RRIRRRPPRLPRPRPRPQIEPRP: the “shrunken log2 fold change” value was found to be 0.694. Turning to RRIRGRPPRLPRPRPRPFYGPRP, the “shrunken log2 fold change” value is -0.0443. Consider RRIRHRPPRLPRPRPRPYNFPRP, for which the “shrunken log2 fold change” value was -0.078. As for RRIRRRPPRLPRPRPRPCVYPRP, the figure is -0.42; as for RRIRSRPPRLPRPRPRPDYPPRP, -0.0733. In the case of RRIRYRPPRLPRPRPRPKHKPRP, the “shrunken log2 fold change” value is -0.545. As for RRIRWRPPRLPRPRPRPLSVPRP, the figure is 0.0836; as for RRIRYRPPRLPRPRPRPMHCPRP, -0.0557. Regarding RRIRFRPPRLPRPRPRPTWQPRP, the “shrunken log2 fold change” value was found to be 0.145. For RRIRPRPPRLPRPRPRPPWAPRP, the “shrunken log2 fold change” value was found to be 1.32. Turning to RRIRQRPPRLPRPRPRPLMGPRP, the “shrunken log2 fold change” value is -0.121. For the sequence RRIRVRPPRLPRPRPRPSICPRP, the “shrunken log2 fold change” value is -0.208. As to RRIRLRPPRLPRPRPRPQHQPRP, the “shrunken log2 fold change” value was -0.261. As for RRIRQRPPRLPRPRPRPHKGPRP, the “shrunken log2 fold change” value was -0.214. Take RRIRGRPPRLPRPRPRPWCGPRP: the “shrunken log2 fold change” value was determined as 0.58. Turning to RRIRARPPRLPRPRPRPIRAPRP, the “shrunken log2 fold change” value stood at 0.242.

As to RRIRKRPPRLPRPRPRPYGDPRP, the “shrunken log2 fold change” value was -0.224.

Regarding RRIRNRPPRLPRPRPRPNFGPRP, the “shrunken log2 fold change” value was -0.0224. In the case of RRIRHRPPRLPRPRPRPCTGPRP it was 0.00233; in that of RRIRWRPPRLPRPRPRPQYRPRP, 0.00862. Regarding RRIRYRPPRLPRPRPRPMAHPRP, the “shrunken log2 fold change” value is -0.0234. RRIRLRPPRLPRPRPRPNGPPRP: the “shrunken log2 fold change” value was -0.146. Take RRIRQRPPRLPRPRPRPLSGPRP: the “shrunken log2 fold change” value is -0.252. Regarding RRIRARPPRLPRPRPRPDNMPRP, the “shrunken log2 fold change” value was -0.45.

For RRIRQRPPRLPRPRPRPRNVPRP, the “shrunken log2 fold change” value was -0.0777. As for RRIRMRPPRLPRPRPRPHSRPRP, the figure is 0.211; as for RRIRKRPPRLPRPRPRPSECPRP, -0.0384. As for RRIRERPPRLPRPRPRPIRHPRP, the “shrunken log2 fold change” value was -0.397. As for RRIRIRPPRLPRPRPRPFFEPRP, the figure is -0.267; as for RRIRKRPPRLPRPRPRPWYPPRP, 0.00168.

On to RRIRNRPPRLPRPRPRPTEQPRP, for which the “shrunken log2 fold change” value is -0.209. In the case of RRIRPRPPRLPRPRPRPPQLPRP, the “shrunken log2 fold change” value came to 0.378. Turning to RRIRTRPPRLPRPRPRPEDSPRP, the “shrunken log2 fold change” value was -0.0215.

With RRIRGRPPRLPRPRPRPDMFPRP, the “shrunken log2 fold change” value was 1.92. With RRIRERPPRLPRPRPRPPICPRP, the “shrunken log2 fold change” value is -0.302. In the case of RRIRFRPPRLPRPRPRPSVIPRP it was -0.339. On to RRIRPRPPRLPRPRPRPCIRPRP, for which the “shrunken log2 fold change” value was -0.14.

Take RRIRIRPPRLPRPRPRPKRWPRP: the “shrunken log2 fold change” value was -0.0451. For the sequence RRIRCRPPRLPRPRPRPQWSPRP, the “shrunken log2 fold change” value is -0.169. RRIRPRPPRLPRPRPRPRIQPRP: the “shrunken log2 fold change” value is 0.389. For the sequence RRIRRRPPRLPRPRPRPLTMPRP, the “shrunken log2 fold change” value worked out at 0.0632. In the case of RRIRRRPPRLPRPRPRPYGDPRP, the “shrunken log2 fold change” value was -0.251. Regarding RRIRYRPPRLPRPRPRPGLLPRP, the “shrunken log2 fold change” value came to 0.0178. For the sequence RRIRRRPPRLPRPRPRPKRHPRP, the “shrunken log2 fold change” value worked out at 0.227. Consider RRIRDRPPRLPRPRPRPMISPRP, for which the “shrunken log2 fold change” value was determined as 0.185.

As to RRIRTRPPRLPRPRPRPPVVPRP, the “shrunken log2 fold change” value is -0.0715. For the sequence RRIRIRPPRLPRPRPRPNFRPRP, the “shrunken log2 fold change” value is -0.297. Take RRIRCRPPRLPRPRPRPRYDPRP: the “shrunken log2 fold change” value is -0.596. Regarding RRIRPRPPRLPRPRPRPAAEPRP, the “shrunken log2 fold change” value amounted to 0.595. As for RRIRGRPPRLPRPRPRPDRIPRP, the “shrunken log2 fold change” value is 0.286. Take RRIRMRPPRLPRPRPRPSEGPRP: the “shrunken log2 fold change” value is -0.00192. As to RRIRCRPPRLPRPRPRPGLWPRP, the “shrunken log2 fold change” value came to 0.569. For RRIRQRPPRLPRPRPRPDHLPRP, the “shrunken log2 fold change” value turned out to be 0.0112.

For RRIRNRPPRLPRPRPRPLHMPRP, the “shrunken log2 fold change” value is -0.372. As to RRIRYRPPRLPRPRPRPSPCPRP, the “shrunken log2 fold change” value is -0.8. With RRIRPRPPRLPRPRPRPVSAPRP, the “shrunken log2 fold change” value stood at 0.249. For RRIRPRPPRLPRPRPRPMPVPRP, the “shrunken log2 fold change” value is 0.0347. Turning to RRIRQRPPRLPRPRPRPPMPPRP, the “shrunken log2 fold change” value worked out at 0.237.

RRIRMRPPRLPRPRPRPYSRPRP: the “shrunken log2 fold change” value is -0.253.

On to RRIRPRPPRLPRPRPRPVREPRP, for which the “shrunken log2 fold change” value was 0.605. RRIRQRPPRLPRPRPRPCYVPRP: the “shrunken log2 fold change” value was -0.0541. With RRIRSRPPRLPRPRPRPVHTPRP, the “shrunken log2 fold change” value came to 0.0158. For RRIRNRPPRLPRPRPRPYYQPRP, the “shrunken log2 fold change” value was -0.697. Turning to RRIRNRPPRLPRPRPRPKGAPRP, the “shrunken log2 fold change” value was found to be 0.476. Consider RRIRQRPPRLPRPRPRPITHPRP, for which the “shrunken log2 fold change” value was -0.102.

Regarding RRIRLRPPRLPRPRPRPIHHPRP, the “shrunken log2 fold change” value was -0.246. On to RRIRQRPPRLPRPRPRPESRPRP, for which the “shrunken log2 fold change” value is -0.00904.

In the case of RRIRQRPPRLPRPRPRPEVDPRP, the “shrunken log2 fold change” value was 0.0316. For RRIRDRPPRLPRPRPRPKGVPRP, the “shrunken log2 fold change” value is -0.00195. As to RRIRCRPPRLPRPRPRPFGFPRP, the “shrunken log2 fold change” value was -0.388.

Take RRIRIRPPRLPRPRPRPKMLPRP: the “shrunken log2 fold change” value amounted to 0.154. Take RRIRGRPPRLPRPRPRPQCHPRP: the “shrunken log2 fold change” value came to 0.48. As for RRIRTRPPRLPRPRPRPPHRPRP, the “shrunken log2 fold change” value is -0.0645. As to RRIRPRPPRLPRPRPRPWEEPRP, the “shrunken log2 fold change” value is 0.148. Take RRIRVRPPRLPRPRPRPVFRPRP: the “shrunken log2 fold change” value amounted to 0.189. With RRIRSRPPRLPRPRPRPHFQPRP, the “shrunken log2 fold change” value is -0.275.

Consider RRIRKRPPRLPRPRPRPMGIPRP, for which the “shrunken log2 fold change” value was -0.00149.

RRIRPRPPRLPRPRPRPRCQPRP: the “shrunken log2 fold change” value worked out at 0.273. As for RRIRKRPPRLPRPRPRPLSVPRP, the “shrunken log2 fold change” value was -0.00128. In the case of RRIRFRPPRLPRPRPRPLIVPRP it was -0.473. Regarding RRIRERPPRLPRPRPRPDTGPRP, the “shrunken log2 fold change” value is -0.161. On to RRIRRRPPRLPRPRPRPNEAPRP, for which the “shrunken log2 fold change” value worked out at 0.271. Turning to RRIRIRPPRLPRPRPRPERNPRP, the “shrunken log2 fold change” value was determined as 0.146. Turning to RRIRRRPPRLPRPRPRPTWGPRP, the “shrunken log2 fold change” value stood at 0.42. As for RRIRARPPRLPRPRPRPMFSPRP, the figure is -0.142. For the sequence RRIRHRPPRLPRPRPRPHIRPRP, the “shrunken log2 fold change” value is -0.0193. As to RRIRPRPPRLPRPRPRPSTWPRP, the “shrunken log2 fold change” value turned out to be 0.0689. As to RRIRPRPPRLPRPRPRPSARPRP, the “shrunken log2 fold change” value stood at 0.186. RRIRHRPPRLPRPRPRPIFIPRP: the “shrunken log2 fold change” value is -0.372. In the case of RRIRPRPPRLPRPRPRPHSCPRP it was -0.11; in that of RRIRERPPRLPRPRPRPLACPRP, -0.269; in that of RRIRQRPPRLPRPRPRPWLRPRP, -0.112. For RRIRERPPRLPRPRPRPREPPRP, the “shrunken log2 fold change” value was 0.392. As to RRIRKRPPRLPRPRPRPNAKPRP, the “shrunken log2 fold change” value is -0.0195.

Take RRIRNRPPRLPRPRPRPQANPRP: the “shrunken log2 fold change” value came out at 0.202. Take RRIRQRPPRLPRPRPRPFMHPRP: the “shrunken log2 fold change” value was -0.0117. In the case of RRIRRRPPRLPRPRPRPSGDPRP it was 0.233; in that of RRIRKRPPRLPRPRPRPKMCPRP, -0.0224; in that of RRIRWRPPRLPRPRPRPDSSPRP, -0.238. For the sequence RRIRGRPPRLPRPRPRPNAGPRP, the “shrunken log2 fold change” value was determined as 0.552.

With RRIRWRPPRLPRPRPRPELNPRP, the “shrunken log2 fold change” value worked out at 0.259. Consider RRIRHRPPRLPRPRPRPMENPRP, for which the “shrunken log2 fold change” value worked out at 0.00439. Take RRIRERPPRLPRPRPRPIKYPRP: the “shrunken log2 fold change” value was -0.351.

As to RRIRFRPPRLPRPRPRPEETPRP, the “shrunken log2 fold change” value is 0.00709. With RRIRKRPPRLPRPRPRPTHNPRP, the “shrunken log2 fold change” value was 0.299.

As to RRIRNRPPRLPRPRPRPTKTPRP, the “shrunken log2 fold change” value was determined as 0.0911. On to RRIRWRPPRLPRPRPRPQGWPRP, for which the “shrunken log2 fold change” value stood at 0.0714. As for RRIRNRPPRLPRPRPRPPYLPRP, the figure is -0.269; as for RRIRFRPPRLPRPRPRPHIAPRP, -0.532. For RRIRSRPPRLPRPRPRPFNEPRP, the “shrunken log2 fold change” value is -0.19.

In the case of RRIRERPPRLPRPRPRPRNLPRP, the “shrunken log2 fold change” value is -0.514. On to RRIRWRPPRLPRPRPRPIETPRP, for which the “shrunken log2 fold change” value came to 0.0333.

As to RRIRSRPPRLPRPRPRPNYQPRP, the “shrunken log2 fold change” value is -0.199.

Take RRIRHRPPRLPRPRPRPMYAPRP: the “shrunken log2 fold change” value was -0.0133. For the sequence RRIRNRPPRLPRPRPRPDNHPRP, the “shrunken log2 fold change” value is -0.0531. As for RRIRERPPRLPRPRPRPVAQPRP, the figure is -0.201; as for RRIRPRPPRLPRPRPRPRGRPRP, 0.713. On to RRIRKRPPRLPRPRPRPYFTPRP, for which the “shrunken log2 fold change” value was -0.0968. On to RRIRHRPPRLPRPRPRPLCYPRP, for which the “shrunken log2 fold change” value is -0.737.

For the sequence RRIRGRPPRLPRPRPRPEHEPRP, the “shrunken log2 fold change” value turned out to be 0.176.

Consider RRIRMRPPRLPRPRPRPALVPRP, for which the “shrunken log2 fold change” value stood at 0.327. For RRIRCRPPRLPRPRPRPCVPPRP, the “shrunken log2 fold change” value was -0.49. Take RRIRHRPPRLPRPRPRPLPLPRP: the “shrunken log2 fold change” value is 0.0701.

Regarding RRIRMRPPRLPRPRPRPYTHPRP, the “shrunken log2 fold change” value was -0.174. In the case of RRIRPRPPRLPRPRPRPRYVPRP it was -0.24.
